Data published in patent publication US20130052176, “APTAMER FOR NGF AND USE THEREOF” (SHIONOGI & CO., LTD, published 2013).

Key:
Conditions in all cases: tags: amine-coupled to CM5 chip in SPR; soluble in cell assays; chain copies: 2
[1] = target: T1, NGF (nerve growth factor) (human, UniProt P01138 P01138:122-241); test: cell_activity; neurite outgrowth, NGF 0.38 nM; SPR binding; TF-1 IC50 0.09 nM
Procedure: (§1) The neurite outgrowth inhibitory activity of the aptamer obtained in Example 1 was evaluated by using Neuroscreen-1 cell, which is a subclone of PC-12 cells.
(§2) The cells (2500 cells per well) were cultured for one day in an RPMI-1640 medium containing 2.5% horse serum and 1.25% fetal bovine serum in a 96 well flat-bottom plate coated with collagen type IV. […] Two days later, the cytoplasm and nuclei were stained using Cellomics Neurite Outgrowth Kit (manufactured by Thermo Scientific), and neurite length per cell was measured by Cellomics ArrayScan VTI (manufactured by Thermo Scientific). With the neurite length per cell obtained by the addition of NGF alone as inhibitory activity 0%, and that of the cell obtained by NGF free culture for 2 days as inhibitory activity 100%, the inhibitory activity of the aptamer was calculated from the neurite length per cell obtained by culturing with the addition of NGF and the aptamer in mixture. When the inhibitory activity was 0% or below, ‘0%’ is indicated.

[2] = target: T1, NGF (nerve growth factor); test: cell_activity; neurite outgrowth, NGF 0.38 nM; SPR binding; TF-1 IC50 0.081 nM
[3] = target: T1, NGF (nerve growth factor); test: cell_activity; neurite outgrowth, NGF 0.38 nM; SPR binding; TF-1 IC50 0.105 nM
Procedure: as §1, §2

[4] = target: T1, NGF (nerve growth factor); test: cell_activity; neurite outgrowth, NGF 0.38 nM; SPR binding; TF-1 IC50 0.110 nM
Procedure: as §1, §2

[5] = target: T1, NGF (nerve growth factor); test: cell_activity; neurite outgrowth, NGF 0.38 nM; SPR binding; TF-1 IC50 0.175 nM
Procedure: as §1, §2

[6] = target: T1, NGF (nerve growth factor); test: cell_activity; neurite outgrowth, NGF 0.38 nM; SPR binding; TF-1 IC50 0.186 nM
Procedure: as §1, §2

[7] = target: T1, NGF (nerve growth factor); test: cell_activity; neurite outgrowth, NGF 0.38 nM; SPR binding; TF-1 IC50 0.211 nM
Procedure: as §1, §2

[8] = target: T1, NGF (nerve growth factor); test: cell_activity; neurite outgrowth, NGF 0.38 nM; SPR binding; TF-1 IC50 <0.1 nM
Procedure: as §1, §2

[9] = target: T1, NGF (nerve growth factor); test: cell_activity; neurite outgrowth, NGF 0.38 nM; SPR binding; TF-1 IC50 0.100 nM
Procedure: as §1, §2

[10] = target: T1, NGF (nerve growth factor); test: cell_activity; neurite outgrowth, NGF 0.38 nM; SPR binding; TF-1 IC50 0.073 nM
Procedure: as §1, §2

[11] = target: T1, NGF (nerve growth factor); test: cell_activity; neurite outgrowth, NGF 0.38 nM; SPR binding; TF-1 IC50 0.128 nM
Procedure: as §1, §2

[12] = target: T1, NGF (nerve growth factor); test: cell_activity; neurite outgrowth, NGF 0.38 nM; SPR binding; TF-1 IC50 0.061 nM
Procedure: as §1, §2

[13] = target: T1, NGF (nerve growth factor); test: cell_activity; neurite outgrowth, NGF 0.38 nM; SPR binding; TF-1 IC50 0.062 nM
Procedure: as §1, §2

[14] = target: T1, NGF (nerve growth factor); test: cell_activity; neurite outgrowth, NGF 0.38 nM; SPR binding; TF-1 IC50 0.083 nM
Procedure: as §1, §2

[15] = target: T1, NGF (nerve growth factor); test: cell_activity; neurite outgrowth, NGF 0.38 nM; SPR binding; TF-1 IC50 0.108 nM
Procedure: as §1, §2

T1 sequence (P01138 122-241, one chain of several): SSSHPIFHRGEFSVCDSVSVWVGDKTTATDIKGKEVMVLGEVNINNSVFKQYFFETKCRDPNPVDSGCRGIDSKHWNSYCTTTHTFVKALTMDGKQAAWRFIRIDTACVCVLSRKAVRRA

B1: aptamer ID 26(14) (ssRNA)
RNA: GGGAGACUCGCCAGAGUUGAAAGAAACCCAAAUAAGUGUGCGCAC
modifications: 2'-F pyrimidines; 2'-OMe purines except 2'-OH at 3,5,19-21,24,26; 5' idT and 3' idT
[1]
  IC50: 0.082 nM

B2: aptamer ID 26(15) (ssRNA)
RNA: GGGAGACUCGCCAGAGUUGAAAGAAACCCAAAUAAGUGUGCGCAC
modifications: 2'-F pyrimidines; 2'-OMe purines except 2'-OH at 3,5,19,20,24,26; 5' idT and 3' idT
[2]
  IC50: 0.067 nM

## GGGAGACUCGCCAGAGUUGAAAGAAACCCAAAUAAGUGUGCGCAC (ssRNA, 2'-F pyrimidines; 2'-OMe purines except 2'-OH at 3,19,20; 5' idT and 3' idT) [aptamer ID 26(18)]
[3]
  IC50: 0.084 nM

## GGGAGACUCGCCAGAGUUGAAAGAAACCCAAAUAAGUGUGCGCAC (ssRNA, 2'-F pyrimidines; 2'-OMe purines except 2'-OH at 3,19,20,24; 5' idT and 3' idT) [aptamer ID 26(20)]
[4]
  IC50: 0.016 nM

B3: aptamer ID 26(21) (mixed)
RNA: GGGAGACUCGCCAGAGUUGAAAGAAACCCAAAUAAGUGUGCGCAC
modifications: 2'-F pyrimidines except dC at 7; 2'-OMe purines except 2'-OH at 3,19,20,26; 5' idT and 3' idT
[5]
  IC50: 0.283 nM

B4: aptamer ID 26(22) (mixed)
RNA: GGGAGACUCGCCAGAGUUGAAAGAAACCCAAAUAAGUGUGCGCAC
modifications: 2'-F pyrimidines except dT at 8; 2'-OMe purines except 2'-OH at 3,19,20,26; 5' idT and 3' idT
[6]
  IC50: 0.293 nM

B5: aptamer ID 26(31) (ssRNA)
RNA: GGGAGACUCGCCAGAGUUGAAAGAAACCCAAAUAAGUGUGCGCAC
modifications: 2'-F pyrimidines except 2'-OMe at 7; 2'-OMe purines except 2'-OH at 3,19,20,26; 5' idT and 3' idT
[7]
  IC50: 0.3 nM

B6: aptamer ID 26(38) (ssRNA)
RNA: GGGAGACUCGCCAGAGUUGAAAGAAACCCAAAUAAGUGUGCGCAC
modifications: 2'-F pyrimidines except 2'-OMe at 7; 2'-OMe purines except 2'-OH at 3,19,20,26; PS between 20 and 21; 5' idT and 3' idT
[8]
  IC50: 0.145 nM

B7: aptamer ID 26(41) (mixed)
RNA: GGGAGACUCGCCAGAGUUGAAAGAAACCCAAAUAAGUGUGCGCAC
modifications: 2'-F pyrimidines except dC at 29 and dT at 37; 2'-OMe purines except 2'-OH at 3,19,20,26; 5' idT and 3' idT
[9]
  IC50: 0.104 nM

B8: aptamer ID 26(42) (mixed)
RNA: GGGAGACUCGCCAGAGUUGAAAGAAACCCAAAUAAGUGUGCGCAC
modifications: 2'-F pyrimidines except dC at 9,29 and dT at 33,37; 2'-OMe purines except 2'-OH at 3,19,20,26; 5' idT and 3' idT
[10]
  IC50: 0.083 nM

B9: aptamer ID 26(43) (mixed)
RNA: GGGAGACUCGCCAGAGUUGAAAGAAACCCAAAUAAGUGUGCGCAC
modifications: 2'-F pyrimidines except dC at 7,9,11,12,29,45 and dT at 8,17,33,37; 2'-OMe purines except 2'-OH at 3,19,20,26; 5' idT and 3' idT
[11]
  IC50: 0.073 nM

B10: aptamer ID 26(44) (ssRNA)
RNA: GGGAGACUCGCCAGAGUUGAAAGAAACCCAAAUAAGUGUGCGCAC
modifications: 2'-F pyrimidines except 2'-OMe at 7,11,12,17,33,45; 2'-OMe purines except 2'-OH at 3,19,20,26; 5' idT and 3' idT
[12]
  IC50: 0.074 nM

B11: aptamer ID 26(49) (ssRNA)
RNA: GGGAGACUCGCCAGAGUUGAAAGAAACCCAAAUAAGUGUGCGCAC
modifications: 2'-F pyrimidines except 2'-OMe at 7,8,9,11,12,17,18,33,37,45; 2'-OMe purines except 2'-OH at 3,19,20,26; 5' idT and 3' idT
[13]
  IC50: 0.059 nM

B12: aptamer ID 26(50) (mixed)
RNA: GGGAGACUCGCCAGAGUUGAAAGAAACCCAAAUAAGUGUGCGCAC
modifications: 2'-F pyrimidines except 2'-OMe at 7,11,12,17,33,45, dT at 8,37 and dC at 9,29; 2'-OMe purines except 2'-OH at 3,19,20,26; 5' idT and 3' idT
[14]
  IC50: 0.046 nM

B13: aptamer ID 26(51) (ssRNA)
RNA: GGGAGACUCGCCAGAGUUGAAAGAAACCCAAAUAAGUGUGCGCAC
modifications: 2'-F pyrimidines except 2'-OMe at 7,8,9,11,12,17,18,33,37,45; 2'-OMe purines except 2'-OH at 3,19,20; 5' idT and 3' idT
[15]
  IC50: 0.191 nM
